“And” between values parts separate entries of the source, which are not always exact repeats. Equal entries are not always repeated.
Key:
Conditions in all cases: Brevibacillus brevis
[1] = substrate: CC(=O)NCCSC(=O)[C@H](CC(C)C)NC(=O)[C@H](CCCN)NC(=O)[C@@H](NC(=O)[C@H](Cc1ccc(O)cc1)NC(=O)[C@H](CCC(N)=O)NC(=O)[C@H](CC(N)=O)NC(=O)[C@@H](Cc1ccccc1)NC(=O)[C@H](Cc1ccccc1)NC(=O)[C@H](C)NC(=O)[C@H](N)Cc1ccccc1)C(C)C; experiment: (§1) Apparent kinetic constant (Km) determined for tyrocidine thioesterase amplified from Bacillus brevis (ATCC8185)
[2] = substrate: CC[C@@H](C)[C@H](NC(=O)[C@H](CC(N)=O)NC(=O)[C@@H](Cc1ccccc1)NC(=O)[C@H](Cc1ccccc1)NC(=O)[C@@H]1CCCN1C(=O)[C@H](N)Cc1ccccc1)C(=O)N[C@@H](Cc1ccc(O)cc1)C(=O)N[C@H](C(=O)N[C@@H](CCCN)C(=O)N[C@@H](CC(C)C)C(=O)SCCNC(C)=O)C(C)C; experiment: as §1
[3] = substrate: CC[C@H](C)[C@H](NC(=O)[C@H](Cc1ccccc1)NC(=O)[C@@H]1CCCN1C(=O)[C@H](N)Cc1ccccc1)C(=O)N[C@@H](CC(N)=O)C(=O)N[C@@H](CCC(N)=O)C(=O)N[C@@H](Cc1ccc(O)cc1)C(=O)N[C@H](C(=O)N[C@@H](CCCN)C(=O)N[C@@H](CC(C)C)C(=O)SCCNC(C)=O)C(C)C; experiment: as §1
[4] = substrate: CC(=O)NCCSC(=O)[C@H](CC(C)C)NC(=O)[C@H](CCCN)NC(=O)[C@@H](NC(=O)[C@H](Cc1ccc(O)cc1)NC(=O)[C@H](CCC(N)=O)NC(=O)[C@H](CC(N)=O)NC(=O)[C@H](CC(N)=O)NC(=O)[C@H](Cc1ccccc1)NC(=O)[C@@H]1CCCN1C(=O)[C@H](N)Cc1ccccc1)C(C)C; experiment: as §1
[5] = substrate: CC(=O)NCCSC(=O)[C@H](CC(C)C)NC(=O)[C@H](CCCN)NC(=O)[C@@H](NC(=O)[C@H](Cc1ccc(O)cc1)NC(=O)[C@H](CCC(N)=O)NC(=O)[C@H](CC(N)=O)NC(=O)[C@H](CC(C)C)NC(=O)[C@H](Cc1ccccc1)NC(=O)[C@@H]1CCCN1C(=O)[C@H](N)Cc1ccccc1)C(C)C; experiment: as §1
[6] = substrate: CC(=O)NCCSC(=O)[C@H](CC(C)C)NC(=O)[C@H](CCCN)NC(=O)[C@@H](NC(=O)[C@H](Cc1ccc(O)cc1)NC(=O)[C@H](CCC(N)=O)NC(=O)[C@H](CC(N)=O)NC(=O)[C@H](CCC(N)=O)NC(=O)[C@H](Cc1ccccc1)NC(=O)[C@@H]1CCCN1C(=O)[C@H](N)Cc1ccccc1)C(C)C; experiment: as §1
[7] = substrate: CC(=O)NCCSC(=O)[C@H](CC(C)C)NC(=O)[C@H](CCCN)NC(=O)[C@@H](NC(=O)[C@H](Cc1ccc(O)cc1)NC(=O)[C@H](CCC(N)=O)NC(=O)[C@H](CC(N)=O)NC(=O)[C@H](Cc1c[nH]c2ccccc12)NC(=O)[C@H](Cc1ccccc1)NC(=O)[C@@H]1CCCN1C(=O)[C@H](N)Cc1ccccc1)C(C)C; experiment: as §1
[8] = substrate: CC(=O)NCCSC(=O)[C@H](CC(C)C)NC(=O)[C@H](CCCN)NC(=O)[C@@H](NC(=O)[C@H](Cc1ccc(O)cc1)NC(=O)[C@H](CCC(N)=O)NC(=O)[C@H](CC(N)=O)NC(=O)[C@H](C)NC(=O)[C@H](Cc1ccccc1)NC(=O)[C@@H]1CCCN1C(=O)[C@H](N)Cc1ccccc1)C(C)C; experiment: as §1
[9] = substrate: CC(=O)NCCSC(=O)[C@H](CC(C)C)NC(=O)[C@H](CCCN)NC(=O)[C@@H](NC(=O)[C@H](Cc1ccc(O)cc1)NC(=O)[C@H](CCC(N)=O)NC(=O)[C@H](CC(N)=O)NC(=O)[C@H](CCC(=O)O)NC(=O)[C@H](Cc1ccccc1)NC(=O)[C@@H]1CCCN1C(=O)[C@H](N)Cc1ccccc1)C(C)C; experiment: as §1
[10] = substrate: CC(=O)NCCSC(=O)[C@H](CC(C)C)NC(=O)[C@H](CCCN)NC(=O)[C@H](CCC(N)=O)NC(=O)[C@H](Cc1ccc(O)cc1)NC(=O)[C@H](CCC(N)=O)NC(=O)[C@H](CC(N)=O)NC(=O)[C@@H](Cc1ccccc1)NC(=O)[C@H](Cc1ccccc1)NC(=O)[C@@H]1CCCN1C(=O)[C@H](N)Cc1ccccc1; experiment: as §1
[11] = substrate: CC(=O)NCCSC(=O)[C@H](CC(C)C)NC(=O)[C@H](CCCN)NC(=O)[C@@H](NC(=O)[C@H](Cc1ccc(O)cc1)NC(=O)[C@H](CCC(N)=O)NC(=O)[C@H](CC(N)=O)NC(=O)[C@H](CCCCN)NC(=O)[C@H](Cc1ccccc1)NC(=O)[C@@H]1CCCN1C(=O)[C@H](N)Cc1ccccc1)C(C)C; experiment: as §1
[12] = substrate: CC(=O)NCCSC(=O)[C@H](CC(C)C)NC(=O)[C@H](CCCN)NC(=O)[C@@H](NC(=O)[C@H](Cc1ccc(O)cc1)NC(=O)[C@H](CCC(N)=O)NC(=O)[C@H](CC(N)=O)NC(=O)[C@@H](Cc1ccccc1)NC(=O)[C@H](Cc1ccccc1)NC(=O)[C@@H]1CCCN1C(=O)[C@H](N)Cc1ccccc1)C(C)C; experiment: as §1
[13] = substrate: CC(=O)NCCSC(=O)[C@H](CC(C)C)NC(=O)[C@H](CCCN)NC(=O)[C@@H](NC(=O)[C@H](Cc1ccc(O)cc1)NC(=O)[C@H](CCC(N)=O)NC(=O)[C@H](CC(N)=O)NC(=O)[C@@H](NC(=O)[C@H](Cc1ccccc1)NC(=O)[C@@H]1CCCN1C(=O)[C@H](N)Cc1ccccc1)[C@@H](C)O)C(C)C; experiment: as §1
[14] = substrate: CC(=O)NCCSC(=O)[C@H](CC(C)C)NC(=O)[C@H](CCCN)NC(=O)[C@@H](NC(=O)[C@H](Cc1ccc(O)cc1)NC(=O)[C@H](CCC(N)=O)NC(=O)[C@H](CC(N)=O)NC(=O)[C@@H](NC(=O)[C@H](Cc1ccccc1)NC(=O)[C@@H]1CCCN1C(=O)[C@H](N)Cc1ccccc1)C(C)C)C(C)C; experiment: as §1
[15] = substrate: CC(=O)NCCSC(=O)[C@H](CC(C)C)NC(=O)[C@H](CCCN)NC(=O)[C@@H](NC(=O)[C@H](Cc1ccc(O)cc1)NC(=O)[C@H](CCC(N)=O)NC(=O)[C@H](CC(N)=O)NC(=O)[C@H](CC(=O)O)NC(=O)[C@H](Cc1ccccc1)NC(=O)[C@@H]1CCCN1C(=O)[C@H](N)Cc1ccccc1)C(C)C; experiment: as §1

B1: Thioesterase GrsT homolog tycF (Brevibacillus brevis), O30412 (protein)
chain: MKLFCFPYAGGLPGIYYSWKSRLPPTFLEIDAFEVRPHIPQPNRDVFLPTSFYELLEDVCDRITPALTETPFAFFGHSMGGLVAFELTRKLMQKGAPLPQHLFLSASRAPHAYGKLAKTYNLPHDEFVEALRKLGGTPDDVLENQELLELFLPILRADFQAVQTYEMNPDLPRQVPVNMTVLYGTEDTIALEDIWAWRDYCQGACQFFPVSGGHFFIHHQTSPILEIIQNVLKEEKTVAIHSSF
Km [1]: 31 µM
Km [2]: 82 µM
Km [3]: 32 µM
Km [4]: 19 µM
Km [5]: 29 µM
Km [6]: 16 µM
Km [7]: 7.5 µM
Km [8]: 19 µM
Km [9]: 12 µM
Km [10]: 62 µM
Km [11]: 15 µM
Km [12]: 13 µM and 9.2 µM
Km [13]: 31 µM
Km [14]: 145 µM
Km [15]: 238 µM

Reference: ChEMBL document CHEMBL1135258, “Substrate spectrum of tyrocidine thioesterase probed with randomized peptide N-acetylcysteamine thioesters” (Bioorg Med Chem Lett, 2002)
